Test results from IntAct's records for PubMed 20485264.
Each block holds one substance with its values, some of them ahead of it.

Key:
ipka_human PKIA [1] = molecular target: ipka_human PKIA (UniProt P61925)
ipka_human PKIA [2] = molecular target: ipka_human PKIA (UniProt P61925); remark: listed apart in the source
ipka_human PKIA [3] = molecular target: ipka_human PKIA (UniProt P61925); remark: listed apart in the source
ipka_human PKIA [4] = molecular target: ipka_human PKIA (UniProt P61925); remark: listed apart in the source
xpo1_yeast CRM1 = xpo1_yeast CRM1 (UniProt P30822)

effect of a mutation on the interaction (ipka_human PKIA [3]): increasing interaction
Substance: Exportin-1 (Saccharomyces cerevisiae) (from UniProt P30822) V441D

effect of a mutation on the interaction (ipka_human PKIA [4]): increasing interaction
Substance: Exportin-1 (Saccharomyces cerevisiae) (from UniProt P30822) V443D

effect of a mutation on the interaction (xpo1_yeast CRM1): disrupting interaction
Substance: cAMP-dependent protein kinase inhibitor alpha (Homo sapiens) (from UniProt P61925) I47A

More lines, now with the values behind:

Substance: Exportin-1 (Saccharomyces cerevisiae) (from UniProt P30822) P754D
effect of a mutation on the interaction (ipka_human PKIA [1]): increasing interaction

Substance: Exportin-1 (Saccharomyces cerevisiae) (from UniProt P30822) V441A;L442A
effect of a mutation on the interaction (ipka_human PKIA [2]): increasing interaction
